In article PMC12717039, “Novel mutations in the RECQL4 gene affect its helicase functions, interactions with the BLM helicase and chemotherapeutics-induced cell death”:
Positions count from the first letter of the chain named.

Key:
[1] = biological target: T1, RECQL4 427-1116 P532S (Homo sapiens, UniProt O94761 427-1116, P532S); experiment: MST; 5 mM Mg2+; no ATP mentioned; Kd only in figure; Buffer D: 10 mM HEPES pH 7.5, 50 mM NaCl, 5 mM MgCl2, 2 mM DTT (EMSA, 100 nM Cy3-DNA, 6% native PAGE); MST with 10 nM Cy5-DNA, buffer not restated; temperature; conditions: protein: recombinant; tags: GST tag removed by TEV; label: 5' Cy5 on strand 1; 3' overhang 15 nt on strand 1, 15 bp duplex
T1 sequence: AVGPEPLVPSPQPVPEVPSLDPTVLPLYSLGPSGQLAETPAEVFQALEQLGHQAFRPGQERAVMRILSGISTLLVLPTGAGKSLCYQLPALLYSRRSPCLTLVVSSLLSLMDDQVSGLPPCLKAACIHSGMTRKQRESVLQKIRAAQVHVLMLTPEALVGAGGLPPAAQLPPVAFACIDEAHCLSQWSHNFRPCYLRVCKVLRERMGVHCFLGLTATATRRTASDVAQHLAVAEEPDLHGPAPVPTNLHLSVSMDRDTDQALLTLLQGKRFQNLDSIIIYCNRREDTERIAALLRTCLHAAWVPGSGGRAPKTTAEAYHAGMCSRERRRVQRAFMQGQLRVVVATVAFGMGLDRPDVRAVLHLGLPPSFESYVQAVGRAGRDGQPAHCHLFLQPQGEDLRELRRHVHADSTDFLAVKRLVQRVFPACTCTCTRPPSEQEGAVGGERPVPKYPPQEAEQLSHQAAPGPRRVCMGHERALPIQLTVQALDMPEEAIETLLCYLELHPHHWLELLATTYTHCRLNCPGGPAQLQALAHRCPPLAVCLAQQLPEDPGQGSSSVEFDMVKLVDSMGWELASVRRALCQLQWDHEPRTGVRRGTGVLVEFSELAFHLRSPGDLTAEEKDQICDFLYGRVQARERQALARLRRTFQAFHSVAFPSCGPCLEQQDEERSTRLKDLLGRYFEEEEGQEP

[2] = biological target: T2, RECQL4 427-1116 WT (Homo sapiens, UniProt O94761 427-1116); experiment: as above; conditions: protein: recombinant; tags: GST tag removed by TEV; label: 5' Cy5 on strand 1; 3' overhang 15 nt on strand 1, 15 bp duplex
T2 sequence: T1 sequence with S106P

B1: OH-Cy5/CQ dsDNA with 3' ss overhang (MST) (dsDNA)
DNA 1: CCATTCCACCCTCTATTTTTTTTTTTTTTT
DNA 2: TAGAGGGTGGAATGG
[1]
  binding result: binds
[2]
  binding result: binds
